The source of these data is patent publication US12692310B2, “ASIC1 channel antagonist antibody” (ShanghaiTech University, priority 2019, dated 2026).

Test [1] has as its target T1, ΔhASIC1a (Homo sapiens, UniProt P78348).
T1 construct: A truncated ASIC1a (amino acids 13-464; ΔhASIC1a) was overexpressed and purified; made in house; host or cells: HEK293F (BacMam baculovirus)
T1 sequence (P78348 13-464): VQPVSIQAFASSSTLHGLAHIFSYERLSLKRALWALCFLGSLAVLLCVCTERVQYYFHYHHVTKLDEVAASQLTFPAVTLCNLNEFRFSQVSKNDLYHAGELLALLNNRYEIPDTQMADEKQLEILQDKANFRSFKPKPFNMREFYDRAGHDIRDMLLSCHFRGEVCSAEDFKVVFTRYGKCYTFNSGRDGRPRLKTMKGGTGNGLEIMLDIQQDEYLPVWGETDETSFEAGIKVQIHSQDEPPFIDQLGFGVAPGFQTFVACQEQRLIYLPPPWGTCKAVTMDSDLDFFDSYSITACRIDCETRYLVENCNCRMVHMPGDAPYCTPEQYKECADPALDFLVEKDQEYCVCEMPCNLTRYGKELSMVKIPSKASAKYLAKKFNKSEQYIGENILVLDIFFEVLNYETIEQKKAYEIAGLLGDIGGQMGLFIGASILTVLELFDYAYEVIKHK
Put plainly: Biacore SPR binding affinity, single cycle kinetic model. Particulars: Biacore T200, purified ΔhASIC1a protein, read-out: apparent KD / binding affinity to ΔhASIC1a.
Description: Surface plasmon resonance (SPR) and flow cytometry were used to study the interaction between the monoclonal antibody and hASIC1a. SPR-binding studies were performed on a Biacore T200 (GE Healthcare). The anti-Flag antibody was amine coupled to the surface of a biosensor chip CM5 series S (GE Healthcare). The recombinant Flag-tagged ΔhASIC1a was then immobilized onto the chip surface. […] The kinetics of binding/dissociation was measured as a change in the SPR signal resonance units. Apparent binding affinities were calculated using the Biacore T200 evaluation software with a single-cycle kinetic model.

For test [2], the system named is hASIC1a-eYFP stable cells (6H7). Description: Acidosis-induced cell death, CCK8 and LDH release. Type of test: cell-based. How it is done:
Acidosis-Induced Cell Death. The hASIC1a-eYFP stable cells (6H7) and CHO-K1 cells were seeded in a 96-well plate at a density of 10,000 cells per well 1 d before treatment. ECF solutions at pH 5.5, 6.0, and 7.4 were used to treat the cells at 37° C. for 6 h. To test the rescuing effect of ASC06-IgG1, the antibody was dissolved in an acidic ECF (pH 5.5) to make the final antibody concentrations of 0, 50, 100, 300, 500, and 1,000 nM. The 6H7 cells were first preincubated with the antibody at the corresponding concentrations at 37° C. for 30 min in cell media. After replacing the cell media with the corresponding acidic ECFs, the cells were incubated at 37° C. for 6 h, washed with a PBS buffer (pH 7.4), and then cultured in a 1% FBS DMEM/F-12K media overnight. The supernatants of the overnight culture were collected for the LDH release measurement using a LDH Assay kit (#88953; Thermo Fisher Scientific). The cells viability was determined using the CCK-8 assay kit (#CK04; Dojindo).
Extracellular acidosis in stroke or ischemia-reperfusion injury is known to induce the activation of ASIC1a channels, which leads to neuronal death in the central nervous system, most likely through transient increase of intracellular calcium and related cell signaling mediated by ASIC1a. The survival of hASIC1a overexpressing stable cells was assessed by measuring the enzymatic activities of cytoplasmic dehydrogenases (CCK8 assay) and the concentrations of lactate dehydrogenase (LDH) secreted into the cell media, which reflect the cell viability and cytotoxicity, respectively. […] In the presence of […] ASC06-IgG1, approximately 45% of the ASIC1a expressing stable cells survived at pH 5.5 comparing to about a 5% survival rate in the absence of the antibody. Consistent with CCK8 result, the concentration of LDH released into cell media decreased after the addition of ASC06-IgG1 is also in a dose-dependent manner (FIG. 7D).

Test [3] addresses T2, hASIC1a (Homo sapiens, UniProt P78348).
T2 construct: expressed in transfected cells
T2 sequence (P78348 1-528): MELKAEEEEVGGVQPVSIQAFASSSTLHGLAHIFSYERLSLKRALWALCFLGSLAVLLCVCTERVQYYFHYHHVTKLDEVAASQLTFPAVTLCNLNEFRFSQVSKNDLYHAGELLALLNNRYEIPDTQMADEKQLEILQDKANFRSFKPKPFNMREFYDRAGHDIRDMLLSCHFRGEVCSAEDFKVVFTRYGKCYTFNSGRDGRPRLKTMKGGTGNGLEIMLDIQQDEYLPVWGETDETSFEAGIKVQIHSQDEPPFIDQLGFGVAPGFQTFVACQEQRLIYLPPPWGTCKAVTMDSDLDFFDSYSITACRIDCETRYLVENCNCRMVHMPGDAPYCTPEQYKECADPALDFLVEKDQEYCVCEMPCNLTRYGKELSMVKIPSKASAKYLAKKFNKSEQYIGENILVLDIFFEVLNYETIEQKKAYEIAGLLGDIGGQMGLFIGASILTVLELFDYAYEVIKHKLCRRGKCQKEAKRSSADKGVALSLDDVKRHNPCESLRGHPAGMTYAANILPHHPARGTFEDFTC
Description: Steady-state desensitization (SSD) and pH activation of hASIC1a, patch clamp. Type of test: cell-based. How it is done:
For the measurement of steady-state desensitization (SSD), the pH of the conditioning ECF was adjusted to 7.6, 7.4, 7.2, 7.0, and 6.8 (in a HEPES buffer), while the activating ECF was maintained at pH 6.0 (in an MES buffer). For the measurement of pH activation of the hASIC1a in the 6H7 stable cells, the conditioning ECF was fixed at pH 7.6 (in a HEPES buffer), and the pH of the activating ECF was adjusted to 7.4, 7.2, 7.0, 6.8, 6.5, 6.3, and 6.0. The hASIC1a currents were recorded when the stable cell line 6H7 was patched in the presence and absence of 300 nM ASC06-IgG1. The relative currents expressed as fractions of the maximum amplitude on the sensorgram (I/Imax) were calculated and plotted to constitute SSD and pH activation profiles. Each data point represents the average of at least five patched cells.
To understand the mechanism by which ASC06-IgG1 blocked the hASIC1a currents, SSD and pH activation of hASIC1a in the absence and presence of ASC06-IgG1 were examined. The pH50 (a drop in extracellular pH, which can open 50% of the ASIC1a channel) values of the SSD curve and the pH activation curve for hASIC1a were measured and compared with or without 300 nM ASC06-IgG1. As shown in FIGS. 11A-11B, the SSD was induced when applying the conditioning extracellular fluids (ECFs) with different pH values and the activating ECF at pH 6.0, whereas the pH activation curve was constructed when applying the activating ECFs with varying pH values and the conditioning ECF at pH 7.6.

B1: ASC06-IgG1: ASC06 antibody converted into a full length IgG1 form (antibody, V domains shown)
VH: QVQLQQSGGGLVQPGGSLRLSCAASGFTFSSYAMSWVRQAPGKGLEWVSAISGSGGSTYYADSVKGRFTISRDNSKNTLYLQMNSLRAEDTAVYYCAKDSFYGYSKGDWGQGTLVTVSS
VL: QSALTQPASVSGSPGQSITISCTGTSSDVGAYNYVSWYQQQPGKAPKLMIYGVSNRPSGVSNRFSGSKSGNAASLTISGLQAEDEADYYCSSYTSSSTYVFGTGTKLTVLG
B1: the Kd in test [1] amounted to 7.9 nM. Besides, the “survival of ASIC1a expressing stable cells” value in test [2] (1,000 nM antibody, pH 5.5, CCK8) is “approximately 45%”. Besides, the “protective effect against acidosis-induced cell death, in words” value in test [2] (pH 5.5) is recorded as “significant dose-dependent protective effect”. Further, the “concentration of LDH released into cell media” value in test [2] (pH 5.5, dose-dependent) is listed as “decreased”. For the same molecule, in test [3], the “mechanism of block relative to proton concentration” value is given as “noncompetitive with the proton concentration”. Besides, the “change of pH50 value of SSD” value in test [3] (300 nM, activating ECF pH 6.0) is “No significant differences”. In addition, the “change of pH50 value of pH activation” value in test [3] (300 nM, conditioning ECF pH 7.6) is “No significant differences”. Further, the “interference with SSD and activation of ASIC1a” value in test [3] (300 nM, representative traces) is given as “interferes with neither SSD nor activation”.
